Assay [1] has as its target recombinant PD-L1 protein (UniProt Q9NZQ7 19-238, limits assumed). Nature of the assay: direct ELISA on coated recombinant PD-L1, anti-human F(ab')2-HRP detection.
The next assay deals with T1, murine PD-L1 (murine, UniProt Q9EP73 19-238, limits assumed).
T1 construct: also called rodent PD-L1
Nature of the assay: not described.

Chain of recombinant PD-L1 protein (Q9NZQ7 19-238 limits assumed): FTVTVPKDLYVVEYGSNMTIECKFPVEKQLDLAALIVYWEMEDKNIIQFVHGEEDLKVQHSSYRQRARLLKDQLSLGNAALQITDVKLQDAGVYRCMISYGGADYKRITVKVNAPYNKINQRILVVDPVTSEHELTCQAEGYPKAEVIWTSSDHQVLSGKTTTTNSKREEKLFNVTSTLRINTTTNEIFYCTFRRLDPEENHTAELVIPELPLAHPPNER
T1 sequence (Q9EP73 19-238 limits assumed): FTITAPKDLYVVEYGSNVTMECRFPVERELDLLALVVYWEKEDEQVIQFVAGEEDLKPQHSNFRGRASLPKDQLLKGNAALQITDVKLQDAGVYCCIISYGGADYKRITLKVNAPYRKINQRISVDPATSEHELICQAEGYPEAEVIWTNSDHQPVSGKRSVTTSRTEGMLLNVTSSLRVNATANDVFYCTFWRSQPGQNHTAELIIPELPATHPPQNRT

B1: anti-PD-L1 antibody clone 6 (antibody, V domains shown)
VH: QVQLVQSGAEVKKPGSSVKVSCKASGGTFRRYSISWVRQAPGQGLEWMGGIIPVFGAAKYAQKFQGRVTITADEFTSTAYMELSSLTSEDTAVYYCALSGDSDAFDIWGQGTMVTVSS
VL: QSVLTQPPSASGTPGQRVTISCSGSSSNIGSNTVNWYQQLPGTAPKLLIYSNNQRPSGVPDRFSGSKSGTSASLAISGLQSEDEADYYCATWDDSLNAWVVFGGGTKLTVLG
notes: also called PD-L1-Clone 6; anti-PD-L1 clone 6 antibody
The term EC50 denotes the concentration that produces a half-maximal response. Regarding B1, the EC50 in assay [1] turned out to be 0.1 nM. Moreover, the binding result in the assay with murine PD-L1 is reported as “no binding”.

These data come from US20200299389A1 (AP BIOSCIENCES, published 2020).
